Data from publication PMC9642902 (2022).

Experiments:
Experiment in all cases: ITC
PmPexRD54 AIM peptide = PmPexRD54 AIM peptide (Phytophthora mirabilis)
[1] = target: MjATG8-I, recombinant protein for ITC (Mirabilis jalapa)
[2] = target: MjATG8-III, recombinant protein for ITC (Mirabilis jalapa)

Binder	Kd (PmPexRD54 AIM peptide)	Kd [1]	Kd [2]
potato ATG8-2.2 (StATG8-2.2), protein for ITC (natural protein) MAKSSFKLEHPLERRQAEAARIREKYPDRIPVIVEKAERSDIPDIDKKKYLVPADLTVGQFVYVVRKRIKLSAEKAIFIFVKNILPPTAAMMSAIYEEHKDEDGFLYMTYSGENTFG	4200 µM	–	–
KPLDFDWEIV [PiPexRD54 AIM peptide]	–	0.21 µM	0.12 µM
